# Measurements taken from the supplement of paper PMC12458215.
# ± gives the uncertainty stated by the source.
# Tested on: HEK293T
# Assay: plasma membrane surface immunostaining intensity (anti-HA, deep receptor scanning) (arbitrary fluorescence units); higher = higher plasma membrane expression
# Settings: GPCR class: A
row,Sequence,plasma membrane surface immunostaining intensity
1,MSIMMLPMEQKIQWVPTSLQDITAVLGTEAYTEEDKSMVSHAQKSQHSCLSHSRWLRSPQVTGGSWDLRIRPSKDSSSFRQAQCLRKDPGANNHLESQGVRGTAGDADRELRGPSEKATAGQPRVTLLPTPHVSGLSQEFESHWPEIAERSPCVAGVIPVIYYSVLLGLGLPVSLLTAVALARLATRTRRPSYYYLLALTASDIIIQVVIVFAGFLLQGAVLARQVPQAVVRTANILEFAANHASVWIAILLTVDRYTALCHPLHHRAASSPGRTRRAIAAVLSAALLTGIPFYWWLDMWRDTDSPRTLDEVLKWAHCLTVYFIPCGVFLVTNSAIIHRLRRRGRSGLQPRVGKSTAILLGITTLFTLLWAPRVFVMLYHMYVAPVHRDWRVHLALDVANMVAMLHTAANFGLYCFVSKTFRATVRQVIHDAYLPCTLASQPEGMAAKPVMEPPGLPTGAEV [GPR142],165 ± 58
2,MSLFLSNLSTNDSSLWKENHNSTDLLNPPGTLNIYLFCLTCLMTFAALVGSIYSLISLLKMQNRTVVSMLVASWSVDDLMSVLSVTIFMFLQWPNEVPGYFQFLCTTSALMYLCQGLSSNLKATLLVSYNFYTMHRGVGSQTASRRSGQVLGVVLTVWAASLLLSALPLCGWGAFVRTPWGCLVDCSSSYVLFLSIVYALAFGLLVGLSVPLTHRLLCSEEPPRLHSNYQEISRGASIPGTPPTAGRVVSLSPEDAPGPSLRRSGGCSPSSDTVFGPGAPAAAGAEACRRENRGTLYGTRSFTVSVAQKRFALILALTKVVLWLPMMMHMVVQNVVGFQSLPLETFSFLLTLLATTVTPVFVLSKRWTHLPCGCIINCRQNAYAVASDGKKIKRKGFEFNLSFQKSYGIYKIAHEDYYDDDENSIFYHNLMNSECETTKDPQRDNRNIFNAIKVEISTTPSLDSSTQRGINKCTNTDITEAKQDSNNKKDAFSDKTGGDINYEETTFSEGPERRLSHEESQKPDLSDWEWCRSKSERTPRQRSGYALAIPLCAFQGTVSLHAPTGKTLSLSTYEVSAEGQKITPASKKIEVYRSKSVGHEPNSEDSSSTFVDTSVKIHLEVLEICDNEEALDTVSIISNISQSSTQVRSPSLRYSRKENRFVSCDLGETASYSLFLPTSNPDGDINISIPDTVEAHRQNSKRQHQERDGYQEEIQLLNKAYRKREEESKGS [GPR149],1060 ± 320
3,MSNITDPQMWDFDDLNFTGMPPADEDYSPCMLETETLNKYVVIIAYALVFLLSLLGNSLVMLVILYSRVGRSVTDVYLLNLALADLLFALTLPIWAASKVNGWIFGTFLCKVVSLLKEVNFYSGILLLACISVDRYLAIVHATRTLTQKRHLVKFVCLGCWGLSMNLSLPFFLFRQAYHPNNSSPVCYEVLGNDTAKWRMVLRILPHTFGFIVPLFVMLFCYGFTLRTLFKAHMGQKHRAMRVIFAVVLIFLLCWLPYNLVLLADTLMRTQVIQESCERRNNIGRALDATEILGFLHSCLNPIIYAFIGQNFRHGFLKILAMHGLVSKEFLARHRVTSYTSSSVNVSSNL [CXCR1],5900 ± 170
4,MSPCGPLNLSLAGEATTCAAPWVPNTSAVPPSGASPALPIFSMTLGAVSNLLALALLAQAAGRLRRRRSAATFLLFVASLLATDLAGHVIPGALVLRLYTAGRAPAGGACHFLGGCMVFFGLCPLLLGCGMAVERCVGVTRPLLHAARVSVARARLALAAVAAVALAVALLPLARVGRYELQYPGTWCFIGLGPPGGWRQALLAGLFASLGLVALLAALVCNTLSGLALLRARWRRRSRRPPPASGPDSRRRWGAHGPRSASASSASSIASASTFFGGSRSSGSARRARAHDVEMVGQLVGIMVVSCICWSPMLVLVALAVGGWSSTSLQRPLFLAVRLASWNQILDPWVYILLRQAVLRQLLRLLPPRAGAKGGPAGLGLTPSAWEASSLRSSRHSGLSHF [PTGER1],1460 ± 250
5,MSSNSSLLVAVQLCYANVNGSCVKIPFSPGSRVILYIVFGFGAVLAVFGNLLVMISILHFKQLHSPTNFLVASLACADFLVGVTVMPFSMVRTVESCWYFGRSFCTFHTCCDVAFCYSSLFHLCFISIDRYIAVTDPLVYPTKFTVSVSGICISVSWILPLMYSGAVFYTGVYDDGLEELSDALNCIGGCQTVVNQNWVLTDFLSFFIPTFIMIILYGNIFLVARRQAKKIENTGSKTESSSESYKARVARRERKAAKTLGVTVVAFMISWLPYSIDSLIDAFMGFITPACIYEICCWCAYYNSAMNPLIYALFYPWFRKAIKVIVTGQVLKNSSATMNLFSEHI [TAAR6],175 ± 65
6,MSVCYRPPGNETLLSWKTSRATGTAFLLLAALLGLPGNGFVVWSLAGWRPARGRPLAATLVLHLALADGAVLLLTPLFVAFLTRQAWPLGQAGCKAVYYVCALSMYASVLLTGLLSLQRCLAVTRPFLAPRLRSPALARRLLLAVWLAALLLAVPAAVYRHLWRDRVCQLCHPSPVHAAAHLSLETLTAFVLPFGLMLGCYSVTLARLRGARWGSGRHGARVGRLVSAIVLAFGLLWAPYHAVNLLQAVAALAPPEGALAKLGGAGQAARAGTTALAFFSSSVNPVLYVFTAGDLLPRAGPRFLTRLFEGSGEARGGGRSREGTMELRTTPQLKVVGQGRGNGDPGGGMEKDGPEWDL [LTB4R2],4310 ± 330

# Same assay, conditions: GPCR class: A (Olfactory)
row,Sequence,plasma membrane surface immunostaining intensity
1,MSITKAWNSSSVTMFILLGFTDHPELQALLFVTFLGIYLTTLAWNLALIFLIRGDTHLHTPMYFFLSNLSFIDICYSSAVAPNMLTDFFWEQKTISFVGCAAQFFFFVGMGLSECLLLTAMAYDRYAAISSPLLYPTIMTQGLCTRMVVGAYVGGFLSSLIQASSIFRLHFCGPNIINHFFCDLPPVLALSCSDTFLSQVVNFLVVVTVGGTSFLQLLISYGYIVSAVLKIPSAEGRWKACNTCASHLMVVTLLFGTALFVYLRPSSSYLLGRDKVVSVFYSLVIPMLNPLIYSLRNKEIKDALWKVLERKKVFS [OR5A1],122 ± 20
2,MSNASLLTAFILMGLPHAPALDAPLFGVFLVVYVLTVLGNLLILLVIRVDSHLHTTMYYFLTNLSFIDMWFSTVTVPKLLMTLVFPSGRAISFHSCMAQLYFFHFLGGTECFLYRVMSCDRYLAISYPLRYTSMMTGRSCTLLATSTWLSGSLHSAVQAILTFHLPYCGPNWIQHYLCDAPPILKLACADTSAIETVIFVTVGIVASGCFVLIVLSYVSIVCSILRIRTSEGKHRAFQTCASHCIVVLCFFGPGLFIYLRPGSRKAVDGVVAVFYTVLTPLLNPVVYTLRNKEVKKALLKLKDKVAHSQSK [OR10G8],114 ± 4.5
3,MSNATLLTAFILTGLPHAPGLDAPLFGIFLVVYVLTVLGNLLILLVIRVDSHLHTPMYYFLTNLSFIDMWFSTVTVPKMLMTLVSPSGRTISFHSCVAQLYFFHFLGSTECFLYTVMSYDRYLAISYPLRYTNMMTGRSCALLATGTWLSGSLHSAVQTILTFHLPYCGPNQIQHYFCDAPPILKLACADTSANEMVIFVNIGLVASGCFVLIVLSYVSIVCSILRIRTSEGRHRAFQTCASHCIVVLCFFGPGLFIYLRPGSRDALHGVVAVFYTTLTPLFNPVVYTLRNKEVKKALLKLKNGSVFAQGE [OR10G7],315 ± 110
4,MSQVTNTTQEGIYFILTDIPGFEASHIWISIPVCCLYTISIMGNTTILTVIRTEPSVHQRMYLFLSMLALTDLGLTLTTLPTVMQLLWFNVRRISSEACFAQFFFLHGFSFMESSVLLAMSVDCYVAICCPLHYASILTNEVIGRTGLAIICCCVLAVLPSLFLLKRLPFCHSHLLSRSYCLHQDMIRLVCADIRLNSWYGFALALLIIIVDPLLIVISYTLILKNILGTATWAERLRALNNCLSHILAVLVLYIPMVGVSMTHRFAKHASPLVHVIMANIYLLAPPVMNPIIYSVKNKQIQWGMLNFLSLKNMHSR [OR51Q1],152 ± 70
5,MSYFYRLKLMKEAVLVKLPFTSLPLLLQTLSRKSRDMEIKNYSSSTSGFILLGLSSNPQLQKPLFAIFLIMYLLAAVGNVLIIPAIYSDPRLHTPMYFFLSNLSFMDICFTTVIVPKMLVNFLSETKVISYVGCLAQMYFFMAFGNTDSYLLASMAIDRLVAICNPLHYDVVMKPRHCLLMLLGSCSISHLHSLFRVLLMSRLSFCASHIIKHFFCDTQPVLKLSCSDTSSSQMVVMTETLAVIVTPFLCIIFSYLRIMVTVLRIPSAAGKWKAFSTCGSHLTAVALFYGSIIYVYFRPLSMYSVVRDRVATVMYTVVTPMLNPFIYSLRNKDMKRGLKKLQDRIYR [OR1L6],247 ± 87
